Test results as given in the nanobody polyreactivity screen of Harvey et al. (2022).

test: yeast display, Sf9 membrane polyspecificity reagent, FACS + sequencing; frameworks hold sequencing errors
Procedure, shortened: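 A synthetic nanobody library was expressed on Saccharomyces cerevisiae BJ5465 by galactose induction for 36–48 hours. The library was stained for 1 hour at 4 °C with 10% biotinylated, detergent-solubilized Sf9 membrane reagent and enriched with streptavidin microbeads before FACS. Low and high (top ~1%) gates were set on anti-HA fluorescence for expression and streptavidin fluorescence for reagent binding, and each polyreactivity label reflects the gate of origin.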

Sequence | polyreactivity (PSR sort gate)
QVQLVESGGGLGQAGGSLLLSCAASGTFYTYAMGWYRQAPAKERELVAAINGGGRTYYADSVKGRITISRDNAKNSVYFQMNSLKPEDTAVYYCAAVRRISRYDYWGQGTQVTVSS | high polyreactivity
QVQLVESGGGLVQAGGSLRLSCAASGSIFDGYAMGWDRQAPGKEREFVATITVSGGRTYYADSVKGRFTISRDNAKTTVYLQRNSLKPEDTAVYYCAARKVPLIRSSTVRQYYYWGQGTQVTVSS | high polyreactivity
QVQLVESGGGLVQAGGSLRLSCAASGFTFYRYTMGWYRQPPGKERELVAAISARGVSTYYADSVKGRFTISRDNAKNTVYLQMNSLKPEDTAVYYCYVSRYDSWGQGTQVTVSS | high polyreactivity
QVQLVESGGGLVQAGGSLRLSCASSGRIFFTNAMGWYRQAPGKERELVAAIRSSGGRTYYADSVKGRFTISRDNAKNTVYLQMNSLKPEDTAVYYCNVVDGRHISHYNYWGQGTQVTVSS | high polyreactivity
QVQLVESGGGLVQAGGSIRLSCAASGFIFYYNPMGWSRQEPGIERELVADITSGRSTYYADSVKGRFTISRDNAKISVYLQLNSLKPEDTAVIYCAVDYDQFGSDEELPPGSDYWGQGTQVTVSS | low polyreactivity
QVQLVESGGGLVQAGGSLRLSCAASGTFVYYAMGWYRQAPGKERELVAVISLNGGITYYADSVKGRFTISRDNAKNTVYLQMNSLKPEDTAVYYCNAQFYNSGWSFKSYYWGHGTQVTVSS | low polyreactivity
QVQLVESGGGLVQAGGSLRLSCAASGRIFNGNAMGWYRQAPGKERELVAAISYSGGATYYADSVKGRFTISRDNAKNTVYLQMNSLKPEDTAVYYCAAAAWDPKGSRYDYWGQGTQVTVSS | low polyreactivity
QVQLVESGRGLVQAGGSLRLSCAASGNTLLKNAMGWYRQAPGKERELVAAISSSGGRTYYADSVKGRFTISRDNAKNTVYLQMNSLKQEDTAVYYCAARYPSGYYYWGQGTQVTVSS | high polyreactivity
QVQLVESGGGLVQAGGSLRLSCAASGRTYYNNAMGWYRQAPGKEREFVAAISASGGRTRYADSVKGRFTISRDNAKNTVYLQMNSLKPEDTAVYYCAAAGTSTLYWGQGTQVTVSS | high polyreactivity
QVQLVESGGGLVQAGGSLRLSCAASGSTFPAYTMGWYRQAPGKERELVAAINVSSGGSTYYADSVKGRFTISRDNAKNTVYLQMNSLKPEDTAVYYCATRYVTTGYDYWGQGTQVTVSS | low polyreactivity
QVQLVESGGGLVQAGGSLRLSCAASGSTSPIYAMGWYRQAPGKERELVAAINGVGSTNYADSVKGRFTISRDNAKNTVYLQMNSLKPEDTAVYYCNTRYSPGYQGTEVDYWGKGTQVTVSS | low polyreactivity
QVQRVESGGGLVQARGSLRLSCAASGSTFPAYAMGWYRQARGKEREWVATITYTGGSTFYADSVKGRFTISRDNAKNTVYLQMNILKPEDTEVYYCAADRGDQEDEFDYWGQGTQVTVSS | low polyreactivity
QVQLVESGGGLVQAGGSLRLSCAASGLILSSNTMGWYRQAPGKERELVARIRRNDGNTYYADSVKGRFTISRDNAKNTVYLQMNSLKPEDTAVYYCAQYLAIGYYWGQGTQVTVSS | low polyreactivity
QVHLVESGGGLVQEGGSLRISCAASGSSFSHYTMGWYIQAPGKERELVAAISYRGGSTYYADSLKGRFTISRDNAKNTVYFQSNSLKPEDTAVYYCAAVGYYSTVRRYDYWGQRTQVTVSS | low polyreactivity
QVQLVDSGGGLVQAGGSLRLSCAASGSILGAKDMGWFRQAPGKERELVATITWNGGGTSYADSVKGRFTISRDNAKNTVYLQMNSLKAEDTAVYYFNALGRDSQALYRYRLVGEFGYWGQGSQVTVSS | low polyreactivity
QVQLVESGGGLVQAGGSLRLSCAASGRIFSYNAMGLYRPAPVKERELFAAITFSGGGTYYADSVKGRFTISRDNAKNTVYLQMKSLKPEDTAVYYCNKVSYGYSTYGYWGQGTQVTVSS | low polyreactivity
QVQLEGSGGGLVQAGGSLRLSCAASGSIFSTNAMGWYRKAPGKERELVASISSGGGSTYYADSVKGRFTISRDTAKKTVYLQMNSLKPEDTAVYYCARRIGHGSRPYWLETWRYPYEYWGQGTQVTVSS | low polyreactivity
QVQIVESGGGLVQAGGSLRLSCAASGSIFGTNTMGWYRPAPGKEWEFVAAIRLSDSSTYYADSVKWRFTISRDNAKNTVYLQMNSLKPEDTEVYYCAVDYRAYHYYLYDYWGQGTQVTVSS | low polyreactivity
QLQLVESGGGLDQAGVSLRLSCAASGFIFRNYAIGSYRQAPGNESELVAAITRSGTSTYYADSVKGRFSISRDNAKNTVYLQMNSLKPEDTAVYYCNTRYWLYYHRFDYWGQGTQVTVSS | high polyreactivity
QVQLVESGGGLVQAGGSLRLSCAASGRIFRDYAMGWYRQAPGKETELVATITWSGATTYYADSVKGRFTISRDNAKNTVYLQMNSLKPEDTAVYYCNTDTDVDVAFDSWGQGTQVTVSS | low polyreactivity
QVQLVESGGGLVQAGGSLRLSCAASGSIFYYNTMGWYRQAPGKERELVAAISWSGGSTSYADSVKGRFTISRDNAKNTVYLQMNSLKPEDTAVYYCAAKAVGLGKSWRGDDYWGQGTQVTVSS | low polyreactivity
QVQLVESGGGLVQAGGSLRLSCAASGSIFFRYTMGWSRQAPGTERELVAAITGSGGSTYYADSVKGRFTISRDNAKNTVYLQMNSLKTEDTAVYYCARPGWGRYEYWGQGTQVTVSS | high polyreactivity

Sequence | polyreactivity (PSR sort gate)
QVQLVESGGGLVQAGGSLRLSCAASGRIFKTNAMGWYRQAPGKERELVAAITWSGTSTYYADSVKWRYTISRDNEKITVYLQMNSLKPEDTAVYYCDAKQYARKYGFWGQGTQVTVSS | high polyreactivity
QVQLVDSGGGLVQAGGSLRLSCAASGITFDHYAMGWSRQAPGKEREFVAAIDDIGGDTYYADSVKGRFTISRDNAKNTVYLQMNSLKPEATAVYYCAADYGYYSRFYYWGQGTQVTVSS | low polyreactivity
QVQLVESGGGLVQAGGSLRLSCAASGSTFWYYVMGWYRQAPGKERELVAAISIVGSTYYADSVKGRFTISRDNAKNTVYLQMNSLKPEDTAVYYFNAGYFRGSNAIKVRLTYDHWGQGTQVTVSS | low polyreactivity
QVQLVESGGGLVQAGGSLRLSCAASGFTFGYYAMGWYRQAPGKERELVAAINYSGGSTYYADSVKGRFTISRDNEKNTVYLQMNSLKPEDTAVYYCAAAVLRTYVPDLYDYWGQGTQVTVSS | high polyreactivity
QVQHVESGGGLVQAGGSLPLSCAASGFIFYNYAQRCYTQPPGKERELVAAISSGDDTTYADSVKGRFTISRDNAKNTVYLQMNSLKPDDTAVYYCNTVRSVKQQGPYGYCGQGTQVTVSS | low polyreactivity
QVQLVESGGGLVQAGGSLRLSCAASGFTLQQYTMGWYIQAPGKERELVAAISTSGVRTYYADSVKGRFTISRDNAKNTVYLQMNSLKPEDTAVYYCNAAWVYGIGWYSGYDYWGQGTQVTVSS | high polyreactivity
QVQLVESGGRLVQAGGSLRLSCAASGLTFSGYAMGWYRQAPGKERELVAAISGGGGSTYYADSVKGRFTISRDNAKNTVYLQMNSLKPEDTAVYYCAARPRWYTYTRQEYDYWGQGTQVTVSS | high polyreactivity
QVQLVESGGGLVQAGGSLRLSCAASGFTFWRYAMGWYRQAPGKERELVAAITWSGGRTYYADSVKGRFTISRDNAKNTVYLQMNSLKPEDTAVYYCNVDAYGYRPYRYYYWGQGTQVTVSS | high polyreactivity
QVQLVESGGGLVQAGGSLRLSCAASGSTFHTYTMGWYRQAPGKERELVAGISRSGGSTYYADSVKGRFTISRDNAKNTVYLQMNSLKPEDTAVYYCNALSSKTDTYDYWGQGTQVTVSS | high polyreactivity
QVQLVESGGGLVQAGGSLRLSCAASGRTFLYNAMGWYRQAPGKERELVATITWSDDGTYYADSVKGRFTISRDNAKNTVYLQMNSLKPEDTAVYYCAAVYPRTRVKMDYWGQGTQVTVSS | low polyreactivity
QVQLVESGGGLVPAGGSLRLSCAASGFIILYYAMGWYRHEPGKERELVAAITTRGGRTYYADSVKGRFTISRDNAKNTVYLQMYSLKPEDTALYYCAADHLYWGLEDESWGQGTQVTVSS | low polyreactivity
QVQLVESGGGLVQAGGSLRLSCAASGITFRSYAMGWYRQAPGKERELVATISGRGGRTYYADSVKGRFTISRDNAKNTVYLQMNSLKPEDTAVYYCAARLHSYGVGVDYWGQGTQVSVSS | high polyreactivity
QVQLVESGGGLVQAGGSLRLSCAPSGRTLRVNTMGWYRQAPGKERELVAAISSGGSRTNYADSVKGRFTISRDNAKNTVYLQMNSLKPEDTAVYYCNKYNRFVYSPPSVYWGQGTQVTVSS | high polyreactivity
QVQLVESGGGLVQAGGSLRLSCAASGSTIYRYAMGWNRQAPGKERELVATISRTGARTNYADSVKGRFTISRDNAKNTVYLQMNSLKPEDTAVYYCAASAPYIYYWGQGTQVTVSS | high polyreactivity
QVQLVESGGGLVQAGGSLRLSCAASGFTFDENAMGWYRQAPGINYSGASTYYADSVKGRFTISRDNAKNTVYLQMNSVKPEDTAVYYCAAEVVAQMNYCGQGTQVTVSS | low polyreactivity
QVQLGESGGGLVQAGGILRLSCAASGSTFFYYAMGWYRQAPGKERELVATINYNGGSTSYADSVKGRFTFSRDNAKNTLYLQMISLIPEDTAVYYCAADLWVWYYKPYDYWGQGTQVTVSS | low polyreactivity
QVQLVESGGGLVQAGGSLRLSCAASGIIFRGYAMGWDRQAPGQERELVAVIDRSGARTNYADSVTGRFTISRDNAKNTVYLQMNSLKPEDTAVYYCAASGVRAYSGLGYWGQGSQVTVSS | high polyreactivity
QVQLVESGGGLVQAGGTLRLSGAASGSTFVYNAMGWNIQAPGKERDLVAVITRRGGSPYYADSVNGRFTISRDNEKKTVYLQMNILNPEDTAVYYCAAGYRRTQTTDYHYWGHGTQVTVSS | high polyreactivity
QVQLVESGGGLVQAGGSLRLSCAASGRTFAGNAMGWYRPAPGTERELVADITRGGGSTYYADSVKGRFTISRDNAKNTVYLQMNSLKPEDTAVYYCAAATAFYYFISEYDYWGQGTQVTVSS | high polyreactivity
QVQLVESGGGLVQAGGSLRLSCAASGRIFSPNAMGWSRQAPGKERELVAAITRGGSTNYADSVKGRFTISRDNAKYTVYLQMNSLKPEDTAVYFCAALLAKTISGRGYNSWGQGTQVTVSS | low polyreactivity
QVQLVESGGGLDQAGGSLRLSCAASGSIFPFYAMGWYRQAPGKERELVAAISDRGGSTYYADSVKGRFTISRDNAKNSVYLQMNSLKPEATAVYYCAKGGEVSQGYTDEYDYWGQGTQVTVSS | low polyreactivity
